Here are results for 2 molecules from US20250154581A1 (BGI SHENZHEN, published 2025).

For assay [1], the target named is T1, Spycatcher003-MspA(MspA)7 (Mycolicibacterium smegmatis (strain …, UniProt A0QR29 28-211)).
T1 construct: Octamer of one Spycatcher003-MspA and seven Strep-MspA subunits, co-expressed in E. coli; also called Spycatcher003-labeled MspA octamer; MspA octamer formed by Spycatcher003-MspA and MspA in a ratio of 1:7
Nature of the assay: mixed 1:1.2 (octamer:Spytag003-DDA), 25 C 30 min, covalent Spytag003/Spycatcher003 coupling; Superose 6 Increase size exclusion chromatography. The protocol: The Spycatcher003-labeled MspA octamer obtained in the above step 4 was mixed with the Spytag003-DDA obtained in the above step 3 at a ratio of 1:1.2, and reacted at 25° C. for 30 minutes, the Superose 6 increase is used for size exclusion chromatography (Purification Buffer: 150 mM NaCl, 20 mM Tris, 0.05% Tween20) to remove excess Spytag003-DDA protein, and the DDA-Spytag/Spycatcher-MspA complex was collected.
(In general: SEC sorts molecules by how far they enter the pores of the column.)

The target in assay [2] is T2, Strep-MspA (Mycolicibacterium smegmatis (strain …, UniProt A0QR29 28-211)).
T2 construct: Subunit co-expressed with 6*His-Spycatcher003-MspA; Called simply MspA where the 1:7 complex is described
Nature of the assay: co-expression, Strep column co-purification, nickel column imidazole gradient and ion exchange separation. The protocol:
In the present application, an MspA octamer which only contains one molecule of Spycatcher003 was obtained through the following method. First, the bacterial cells co-expressing 6*His-Spycatcher003-MspA and Strep-MspA obtained in the above step 2 (2) were disrupted by high pressure (Lysis Buffer: 150 mM NaCl, 20 mM Tris, 1% DDM) and purified by Strep column (Wash Buffer: 150 mM NaCl, 20 mM Tris, 0.05% Tween 20; Elution buffer: 150 mM NaCl, 20 mM Tris, 10 mM desthiobiotin) to obtain complexes with different ratios of the two proteins. […] From this, the Spycatcher003-labeled MspA octamer was obtained.

B1: Spytag003-DDA (enzyme)
chain: RGVPHIVMVDAYKRYKGGSGGSGGSGGSGGSGGSMTFDDLTEGQKNAFNIVMKAIKEKKHHVTINGPAGTGKTTLTKFIIEALISTGGTGIILAAPTHAAKKILSKLSGKEASTIHSILKINPVTYEENVLFEQKEVPDLAKCRVLICDEVSMYDRKLFKILLSTIPPWCTIIGIGDNKQIRPVEPGENTAYISPFFTHKDFYQCELTEVKRSNAPIIDVATDVRNGKWNYDKVVDGHGVRGFTGDTALRDFMVNYFSIVKSLDDLFENRVMAFTNKSVDKLNSIIRKKIFETDKDFIVGEIIVMQEPLFKTYKIDGKPVSEIIFNNGQLVRIIEAEYTSTFVKARGVPGEYLIRHWDLTVETYGDDEYYREKIKIISSDEELYKFNLFLAKTAETYKNWNKGGKAPWSDFWDAKSQFSKVKALPASTFHKAQGMSVDRAFIYTPCIHYADVELAQQLLYVGVTRGRYDVFYV
notes: Expressed from pET.28a(+)-6*His-Spytag003-DDA; also called 6*His-Spytag003-DDA; motor protein Spytag003-DDA
Turning to B1, the binding result in assay [1] was “binds”.

B2: Spycatcher003-MspA (other)
chain: MVTTLSGLSGEQGPSGDMTTEEDSATHIKFSKRDEDGRELAGATMELRDSSGKTISTWISDGHVKDFYLYPGKYTFVETAAPDGYEVATPIEFTVNEDGQVTVDGEATEGDAHTGGSGGSGGSGLDNELSLVDGQDRTLTVQQWDTFLNGVFPLDRNRLTREWFHSGRAKYIVAGPGADEFEGTLELGYQIGFPWSLGVGINFSYTTPNILIDDGDITAPPFGLNSVITPNLFPGVSISADLGNGPGIQEVATFSVDVSGAEGGVAVSNAHGTVTGAAGGVLLRPFARLIASTGDSVTTYGEPWNMN
notes: Subunit expressed as 6*His-Spycatcher003-MspA; also called 6*His-Spycatcher003-MspA
As to B2, the binding result in assay [2] is listed as “binds”.
